Laboratory results: US20190134153A1, “IMMUNOMODULATORY EFFECT OF INHALED KINASE INHIBITOR PEPTIDES IN LUNG” (MOERAE MATRIX, INC., priority 2017, published 2019)

Assays:
Assay in all cases: Kinase Profiling Assay
Type in all cases: biochemical
Conditions in all cases: 100 μM
[1] = biological target: T1, PKD2(h) (Homo sapiens, UniProt Q9BZL6)
T1 sequence (Q9BZL6 1-878): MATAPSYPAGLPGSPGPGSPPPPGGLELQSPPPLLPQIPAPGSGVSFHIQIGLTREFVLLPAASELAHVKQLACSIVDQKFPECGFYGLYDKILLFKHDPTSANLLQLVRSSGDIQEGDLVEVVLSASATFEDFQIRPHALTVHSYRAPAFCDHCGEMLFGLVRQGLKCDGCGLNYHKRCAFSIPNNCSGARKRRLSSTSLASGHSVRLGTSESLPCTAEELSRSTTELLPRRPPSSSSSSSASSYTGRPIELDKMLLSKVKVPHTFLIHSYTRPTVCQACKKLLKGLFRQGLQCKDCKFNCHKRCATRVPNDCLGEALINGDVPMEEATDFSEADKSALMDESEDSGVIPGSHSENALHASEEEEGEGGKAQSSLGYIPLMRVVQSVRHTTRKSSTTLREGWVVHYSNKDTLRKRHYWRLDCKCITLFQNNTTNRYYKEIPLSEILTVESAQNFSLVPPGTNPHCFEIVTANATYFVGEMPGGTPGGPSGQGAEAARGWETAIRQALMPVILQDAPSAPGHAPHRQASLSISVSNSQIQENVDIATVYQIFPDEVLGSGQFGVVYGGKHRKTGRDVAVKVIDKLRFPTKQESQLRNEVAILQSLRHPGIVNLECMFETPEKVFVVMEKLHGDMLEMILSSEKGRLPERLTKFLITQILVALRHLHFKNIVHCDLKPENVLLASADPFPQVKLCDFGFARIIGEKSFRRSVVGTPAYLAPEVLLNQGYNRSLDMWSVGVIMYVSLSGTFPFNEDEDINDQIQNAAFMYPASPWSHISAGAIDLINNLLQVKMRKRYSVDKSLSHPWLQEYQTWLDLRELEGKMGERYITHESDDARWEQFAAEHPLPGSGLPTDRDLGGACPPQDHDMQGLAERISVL

[2] = biological target: T2, MuSK(h) (Homo sapiens, UniProt O15146)
T2 sequence (O15146 24-869): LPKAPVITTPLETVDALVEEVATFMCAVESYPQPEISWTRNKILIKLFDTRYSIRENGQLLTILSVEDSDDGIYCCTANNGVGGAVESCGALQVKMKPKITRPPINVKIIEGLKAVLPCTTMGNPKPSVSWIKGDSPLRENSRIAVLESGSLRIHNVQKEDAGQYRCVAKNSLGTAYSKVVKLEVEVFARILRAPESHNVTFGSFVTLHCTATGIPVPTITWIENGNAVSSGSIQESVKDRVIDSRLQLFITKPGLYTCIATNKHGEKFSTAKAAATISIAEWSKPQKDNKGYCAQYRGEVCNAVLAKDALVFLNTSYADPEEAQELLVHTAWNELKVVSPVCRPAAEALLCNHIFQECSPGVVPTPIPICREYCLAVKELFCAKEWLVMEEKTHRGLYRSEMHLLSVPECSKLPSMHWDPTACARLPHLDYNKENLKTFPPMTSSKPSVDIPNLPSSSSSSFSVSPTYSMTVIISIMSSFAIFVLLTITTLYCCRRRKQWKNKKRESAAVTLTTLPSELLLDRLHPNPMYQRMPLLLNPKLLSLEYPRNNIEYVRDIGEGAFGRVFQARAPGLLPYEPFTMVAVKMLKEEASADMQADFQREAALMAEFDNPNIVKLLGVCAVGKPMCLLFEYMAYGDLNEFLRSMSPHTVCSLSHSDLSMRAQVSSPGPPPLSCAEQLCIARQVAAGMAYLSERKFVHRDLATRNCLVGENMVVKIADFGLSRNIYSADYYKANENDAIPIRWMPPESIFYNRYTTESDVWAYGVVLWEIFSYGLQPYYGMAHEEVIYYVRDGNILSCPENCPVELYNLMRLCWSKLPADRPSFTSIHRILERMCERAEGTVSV

[3] = biological target: LOK(h) (Homo sapiens, UniProt O94804)
Sequence of LOK(h) (O94804 whole entry): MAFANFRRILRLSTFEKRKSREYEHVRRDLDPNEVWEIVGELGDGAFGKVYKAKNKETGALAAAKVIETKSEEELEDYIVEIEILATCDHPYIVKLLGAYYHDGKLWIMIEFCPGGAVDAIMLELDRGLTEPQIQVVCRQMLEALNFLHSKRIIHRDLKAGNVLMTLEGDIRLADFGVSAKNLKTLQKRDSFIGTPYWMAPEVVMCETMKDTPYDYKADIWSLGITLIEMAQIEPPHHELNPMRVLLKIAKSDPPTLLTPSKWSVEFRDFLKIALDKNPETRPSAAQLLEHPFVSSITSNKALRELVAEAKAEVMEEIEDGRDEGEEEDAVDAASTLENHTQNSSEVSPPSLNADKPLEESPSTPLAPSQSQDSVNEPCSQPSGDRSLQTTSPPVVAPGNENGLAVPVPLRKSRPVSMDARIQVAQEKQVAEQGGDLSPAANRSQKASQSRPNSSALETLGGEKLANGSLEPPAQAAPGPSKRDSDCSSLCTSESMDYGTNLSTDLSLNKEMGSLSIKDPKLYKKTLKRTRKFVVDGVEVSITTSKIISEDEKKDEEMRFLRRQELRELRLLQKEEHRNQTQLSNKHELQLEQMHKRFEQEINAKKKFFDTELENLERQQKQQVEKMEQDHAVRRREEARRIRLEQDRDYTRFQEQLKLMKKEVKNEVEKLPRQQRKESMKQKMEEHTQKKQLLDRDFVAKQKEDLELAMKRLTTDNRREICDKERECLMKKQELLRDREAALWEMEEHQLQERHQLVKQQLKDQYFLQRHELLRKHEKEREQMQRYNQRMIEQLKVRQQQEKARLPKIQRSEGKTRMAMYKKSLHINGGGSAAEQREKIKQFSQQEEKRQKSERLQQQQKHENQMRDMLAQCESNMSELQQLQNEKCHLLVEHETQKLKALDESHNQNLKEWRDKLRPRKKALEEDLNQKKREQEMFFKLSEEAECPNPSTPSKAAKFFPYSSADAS

[4] = biological target: CHK2(h) (Homo sapiens, UniProt O96017)
Sequence of CHK2(h) (O96017 whole entry): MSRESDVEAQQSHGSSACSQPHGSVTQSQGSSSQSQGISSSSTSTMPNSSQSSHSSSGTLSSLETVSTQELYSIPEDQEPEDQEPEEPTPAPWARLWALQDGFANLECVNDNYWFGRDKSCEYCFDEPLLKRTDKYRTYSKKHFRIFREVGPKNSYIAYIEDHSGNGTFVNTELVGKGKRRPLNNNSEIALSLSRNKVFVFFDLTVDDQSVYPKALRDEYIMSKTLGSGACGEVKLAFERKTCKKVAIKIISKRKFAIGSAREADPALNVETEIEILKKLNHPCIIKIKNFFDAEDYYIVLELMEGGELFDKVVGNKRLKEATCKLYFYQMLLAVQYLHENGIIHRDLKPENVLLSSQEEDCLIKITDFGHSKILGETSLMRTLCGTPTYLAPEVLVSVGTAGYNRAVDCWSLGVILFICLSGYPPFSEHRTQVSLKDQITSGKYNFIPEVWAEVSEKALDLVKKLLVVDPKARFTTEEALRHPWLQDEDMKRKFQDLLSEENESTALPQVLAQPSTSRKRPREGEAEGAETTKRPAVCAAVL

[5] = biological target: T3, PKCι(h) (Homo sapiens, UniProt P41743)
T3 sequence (P41743 1-596): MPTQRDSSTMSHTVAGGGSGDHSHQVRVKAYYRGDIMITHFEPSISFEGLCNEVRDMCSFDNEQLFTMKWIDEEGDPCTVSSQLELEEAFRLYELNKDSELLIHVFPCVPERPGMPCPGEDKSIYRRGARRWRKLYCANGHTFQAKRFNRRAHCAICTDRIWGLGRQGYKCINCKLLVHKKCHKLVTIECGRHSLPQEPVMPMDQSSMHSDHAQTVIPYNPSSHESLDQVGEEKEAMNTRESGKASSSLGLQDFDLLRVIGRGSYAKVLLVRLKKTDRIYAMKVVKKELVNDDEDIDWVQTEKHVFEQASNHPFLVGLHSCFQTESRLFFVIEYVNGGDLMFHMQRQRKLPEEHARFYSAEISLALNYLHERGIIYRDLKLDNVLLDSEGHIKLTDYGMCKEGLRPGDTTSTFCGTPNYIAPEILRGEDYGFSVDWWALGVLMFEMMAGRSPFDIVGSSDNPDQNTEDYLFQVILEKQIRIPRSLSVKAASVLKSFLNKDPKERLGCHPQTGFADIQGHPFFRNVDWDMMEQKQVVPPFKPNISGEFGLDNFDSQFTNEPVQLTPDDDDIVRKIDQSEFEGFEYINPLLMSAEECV

[6] = biological target: LIMK1(h) (Homo sapiens, UniProt P53667)
Sequence of LIMK1(h) (P53667 whole entry): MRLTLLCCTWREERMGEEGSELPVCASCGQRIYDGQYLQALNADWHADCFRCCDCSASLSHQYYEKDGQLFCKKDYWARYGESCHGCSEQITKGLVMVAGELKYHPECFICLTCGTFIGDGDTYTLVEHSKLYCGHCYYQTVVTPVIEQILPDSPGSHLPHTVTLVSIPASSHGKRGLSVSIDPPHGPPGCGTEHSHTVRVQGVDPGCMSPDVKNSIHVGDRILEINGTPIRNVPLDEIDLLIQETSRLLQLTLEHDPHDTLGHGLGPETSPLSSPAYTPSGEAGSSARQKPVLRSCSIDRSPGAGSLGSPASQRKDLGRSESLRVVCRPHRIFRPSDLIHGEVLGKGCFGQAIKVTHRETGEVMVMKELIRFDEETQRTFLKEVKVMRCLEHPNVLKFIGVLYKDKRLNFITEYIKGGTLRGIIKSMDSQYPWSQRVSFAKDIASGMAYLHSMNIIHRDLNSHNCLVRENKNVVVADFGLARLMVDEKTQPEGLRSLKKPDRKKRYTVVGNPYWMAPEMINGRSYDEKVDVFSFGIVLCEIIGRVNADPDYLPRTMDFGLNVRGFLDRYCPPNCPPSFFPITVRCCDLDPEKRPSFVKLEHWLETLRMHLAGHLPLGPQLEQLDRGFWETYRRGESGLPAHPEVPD

[7] = biological target: MARK1(h) (Homo sapiens, UniProt Q9P0L2)
Sequence of MARK1(h) (Q9P0L2 whole entry): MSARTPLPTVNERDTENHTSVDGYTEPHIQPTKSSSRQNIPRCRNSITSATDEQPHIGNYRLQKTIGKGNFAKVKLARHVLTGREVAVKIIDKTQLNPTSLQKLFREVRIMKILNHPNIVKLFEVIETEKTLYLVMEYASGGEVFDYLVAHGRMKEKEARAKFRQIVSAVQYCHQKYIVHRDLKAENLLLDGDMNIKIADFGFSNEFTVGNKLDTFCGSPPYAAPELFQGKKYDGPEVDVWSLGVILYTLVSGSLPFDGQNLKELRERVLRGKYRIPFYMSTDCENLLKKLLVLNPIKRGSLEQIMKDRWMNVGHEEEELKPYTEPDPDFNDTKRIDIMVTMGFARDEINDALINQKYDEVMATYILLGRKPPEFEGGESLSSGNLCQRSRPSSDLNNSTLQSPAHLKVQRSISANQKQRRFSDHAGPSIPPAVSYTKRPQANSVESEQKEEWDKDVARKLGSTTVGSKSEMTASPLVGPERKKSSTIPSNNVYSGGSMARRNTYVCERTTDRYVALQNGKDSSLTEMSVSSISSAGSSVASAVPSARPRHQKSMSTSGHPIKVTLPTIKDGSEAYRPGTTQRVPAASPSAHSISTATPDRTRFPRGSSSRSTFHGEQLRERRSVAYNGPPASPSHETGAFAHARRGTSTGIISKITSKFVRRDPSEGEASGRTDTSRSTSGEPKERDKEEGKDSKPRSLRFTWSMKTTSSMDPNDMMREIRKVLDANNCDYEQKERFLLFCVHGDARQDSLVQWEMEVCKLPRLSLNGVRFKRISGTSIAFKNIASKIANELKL

Row | Sequence | % activity [1] [%] | % activity [2] [%] | % activity [3] [%] | % activity [4] [%] | % activity [5] [%] | % activity [6] [%] | % activity [7] [%]
1 | FAKLAARLYRKALARQLGVAA [MMI-0300] | 33 | 93 | 37 | 66 | 68 | 88 | 132
2 | KAFAKLAARLYRKALARQLGVAA [MMI-0400] | 25 | 93 | 18 | 54 | 46 | 92 | 120
3 | HRRIKAWLKKIKALARQLGVAA [MMI-0500] | 10 | 27 | 7 | 13 | 7 | 87 | 110
4 | YARAAARQARAKALNRQLGVA [MMI-0200] | 78 |  | 67 |  | 97 |  | 
